This is an account of results in patent US20220098266A1 (AKSTON BIOSCIENCES, published 2022).

B1: insulin-Fc fusion protein of SEQ ID NO: 24 (insulin polypeptide SEQ ID NO: 4, linker SEQ ID NO: 8, canine IgGB Fc fragment SEQ ID NO: 11) (Fc fusion)
chain: FVNQHLCGSDLVEALALVCGERGFFYTDPTGGGPRRGIVEQCCHSICSLYQLENYCNGGGGAGGGGDCPKCPAPEMLGGPSVFIFPPKPKDTLLIARTPEVTCVVVDLDPEDPEVQISWFVDGKQMQTAKTQPREEQFNGTYRVVSVLPIGHQDWLKGKQFTCKVNNKALPSPIERTISKARGQAHQPSVYVLPPSREELSKNTVSLTCLIKDFFPPDIDVEWQSNGQQEPESKYRTTPPQLDEDGSYFLYSKLSVDKSRWQRGDTFICAVMHEALHNHYTQESLSHSPG
notes: Made in HEK293 cells; Disulfide-linked homodimer, 93% homodimer; Glycosylated at cNg-NB139
B2: insulin-Fc fusion protein of SEQ ID NO: 27 (SEQ ID NO: 24 with the mutation cNg-NB139-S; canine IgGB Fc fragment SEQ ID NO: 14) (Fc fusion)
chain: FVNQHLCGSDLVEALALVCGERGFFYTDPTGGGPRRGIVEQCCHSICSLYQLENYCNGGGGAGGGGDCPKCPAPEMLGGPSVFIFPPKPKDTLLIARTPEVTCVVVDLDPEDPEVQISWFVDGKQMQTAKTQPREEQFSGTYRVVSVLPIGHQDWLKGKQFTCKVNNKALPSPIERTISKARGQAHQPSVYVLPPSREELSKNTVSLTCLIKDFFPPDIDVEWQSNGQQEPESKYRTTPPQLDEDGSYFLYSKLSVDKSRWQRGDTFICAVMHEALHNHYTQESLSHSPG
notes: Made in HEK293 cells; Non-glycosylated homodimer, 98.3% homodimer; also called cNg-S
B3: insulin-Fc fusion protein of SEQ ID NO: 20 (insulin polypeptide SEQ ID NO: 4, linker SEQ ID NO: 8, canine IgGA Fc fragment SEQ ID NO: 10) (Fc fusion)
chain: FVNQHLCGSDLVEALALVCGERGFFYTDPTGGGPRRGIVEQCCHSICSLYQLENYCNGGGGAGGGGRCTDTPPCPVPEPLGGPSVLIFPPKPKDILRITRTPEVTCVVLDLGREDPEVQISWFVDGKEVHTAKTQSREQQFNGTYRVVSVLPIEHQDWLTGKEFKCRVNHIDLPSPIERTISKARGRAHKPSVYVLPPSPKELSSSDTVSITCLIKDFYPPDIDVEWQSNGQQEPERKHRMTPPQLDEDGSYFLYSKLSVDKSRWQQGDPFTCAVMHETLQNHYTDLSLSHSPG
B4: insulin-Fc fusion protein of SEQ ID NO: 29 (SEQ ID NO: 24 with des hinge D and the mutation cNg-NB138-K; canine IgGB Fc fragment SEQ ID NO: 15) (Fc fusion)
chain: FVNQHLCGSDLVEALALVCGERGFFYTDPTGGGPRRGIVEQCCHSICSLYQLENYCNGGGGAGGGGCPKCPAPEMLGGPSVFIFPPKPKDTLLIARTPEVTCVVVDLDPEDPEVQISWFVDGKQMQTAKTQPREEQFKGTYRVVSVLPIGHQDWLKGKQFTCKVNNKALPSPIERTISKARGQAHQPSVYVLPPSREELSKNTVSLTCLIKDFFPPDIDVEWQSNGQQEPESKYRTTPPQLDEDGSYFLYSKLSVDKSRWQRGDTFICAVMHEALHNHYTQESLSHSPG
notes: Made in HEK293 cells; Non-glycosylated homodimer, 98.1% homodimer; also called cNg-K

T1 sequence (P06213 28-1382): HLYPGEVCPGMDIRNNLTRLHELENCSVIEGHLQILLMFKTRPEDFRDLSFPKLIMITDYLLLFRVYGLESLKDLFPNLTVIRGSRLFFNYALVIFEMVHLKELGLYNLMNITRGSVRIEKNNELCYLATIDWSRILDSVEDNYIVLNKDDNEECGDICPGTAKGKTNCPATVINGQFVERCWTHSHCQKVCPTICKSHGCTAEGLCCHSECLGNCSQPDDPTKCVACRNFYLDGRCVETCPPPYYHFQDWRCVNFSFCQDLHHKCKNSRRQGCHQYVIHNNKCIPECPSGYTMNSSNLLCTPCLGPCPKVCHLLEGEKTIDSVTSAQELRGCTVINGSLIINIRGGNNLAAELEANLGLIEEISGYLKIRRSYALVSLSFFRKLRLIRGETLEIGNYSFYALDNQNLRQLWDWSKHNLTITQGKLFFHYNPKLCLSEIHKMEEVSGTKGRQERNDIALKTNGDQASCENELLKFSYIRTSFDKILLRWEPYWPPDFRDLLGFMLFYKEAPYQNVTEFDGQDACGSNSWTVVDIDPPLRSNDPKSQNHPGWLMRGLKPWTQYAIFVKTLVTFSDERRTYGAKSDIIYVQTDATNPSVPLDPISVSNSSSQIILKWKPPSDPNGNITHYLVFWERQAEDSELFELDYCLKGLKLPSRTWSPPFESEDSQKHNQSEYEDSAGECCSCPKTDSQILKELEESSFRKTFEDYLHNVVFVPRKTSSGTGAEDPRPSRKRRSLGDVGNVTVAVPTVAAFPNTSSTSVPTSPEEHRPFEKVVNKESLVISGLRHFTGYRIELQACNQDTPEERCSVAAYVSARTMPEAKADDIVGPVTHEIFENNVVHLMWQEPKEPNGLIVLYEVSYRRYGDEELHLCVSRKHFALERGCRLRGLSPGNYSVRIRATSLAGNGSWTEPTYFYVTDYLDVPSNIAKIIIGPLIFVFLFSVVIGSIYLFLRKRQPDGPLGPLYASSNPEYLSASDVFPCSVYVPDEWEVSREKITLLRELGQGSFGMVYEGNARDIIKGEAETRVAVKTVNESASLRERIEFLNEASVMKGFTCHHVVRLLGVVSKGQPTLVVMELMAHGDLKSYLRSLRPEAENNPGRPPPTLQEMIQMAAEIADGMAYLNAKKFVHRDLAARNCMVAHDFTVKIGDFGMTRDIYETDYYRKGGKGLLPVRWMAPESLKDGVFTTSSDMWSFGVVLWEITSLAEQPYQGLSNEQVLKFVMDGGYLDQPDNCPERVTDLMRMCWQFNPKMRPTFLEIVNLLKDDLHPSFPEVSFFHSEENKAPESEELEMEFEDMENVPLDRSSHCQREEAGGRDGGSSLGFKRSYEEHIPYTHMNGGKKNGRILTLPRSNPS

The experiment has as its target T1, human insulin receptor on human IM-9 cells (human, UniProt P06213 28-1382).
T1 construct: whole, on cells; The natural receptor is an alpha2-beta2 tetramer processed from one precursor; also called IR; human IR
The experiment can be described thus: flow cytometry competition with biotinylated RHI on IM-9 cells at 4 C. Here is the method:
Cultures of IM-9 cells were centrifuged at 250×g (˜1000 rpm) for 10 min to pellet the cells. Cells were washed once with HBSS or PBS buffer, resuspended in cold FACS staining medium (HBSS/2 mM EDTA/0.1% Na-azide+4% horse serum) to a concentration of 8×10^6 cells/mL and kept on ice or 4° C. until test solutions were made. The insulin-Fc protein was diluted in FACS buffer in 1:3 serial dilutions as 2× concentrations in 1.2 mL tubes (approx. 60 μL volume of each dilution), and the solutions were kept cold on ice until ready for pipetting.
Biotinylated-RHI was diluted in FACS staining medium to a concentration of 1.25 μg/mL. 40 μL of the serially diluted test compound and 8 μL of 1.25 μg/mL Biotin-RHI were added into each well of a V bottom microtiter plate, mixed by slow vortexing, and placed on ice. 40 μL of an IM-9 cell suspension (8×10^6 cells/mL) was then added to each well by multichannel pipette, mixed again gently and incubated on ice for 30 min to allow competitive binding on the insulin receptor on IM-9 cells. Cells were then washed twice with […], of ice-cold FACS wash buffer (HBSS/2 mM EDTA/0.1% Na-azide+0.5% horse serum) by centrifuging the V-bottom plate at 3000 rpm for 3 min and aspirating the supernatant. Cells were then resuspended in […], of FACS staining medium containing 1:100 diluted Streptavidin-PE (Life Technologies) for 20 min on ice. Cells were then washed once with 275 μL of ice-cold FACS buffer and finally fixed with 3% paraformaldehyde for 10 min at room temp. Cells were then washed once with 275 μL of ice-cold FACS buffer and resuspended in 250 μl of FACS buffer for analysis.
The V-bottom plates containing cells were then analyzed on a Guava 8-HT flow cytometer (Millipore). Biotinylated-RHI binding to insulin receptor was quantitated by the median fluorescence intensity (MFI) of the cells on the FACS FL-2 channel for each concentration of the test compound. Control wells were labeled only with biotinylated-RHI and were used to calculate the percent (%) inhibition resulting from each test compound concentration. The % inhibition by test compounds of biotinylated-RHI binding on IM-9 cells was plotted against log concentrations of the test compound, and the resulting IC50 values were calculated using GraphPad Prism (GraphPad Software, La Jolla, Calif.) for the test compounds.
Background: In flow cytometry, cells or beads pass a laser one at a time.
In the case of B1, the IC50 worked out at 28 nM. In the case of B2 it was 145 nM. As for B3, the figure is 2730 nM; as for B4, 147 nM.

What is called IC50 is the concentration at which inhibition is half-maximal. Read a high IC50 as a need for much substance.
